First the molecules themselves.
B1: Pr101 (dsDNA)
DNA 1: GTACTATACAGCCTGGAGTAG
DNA 2: CTACTCCAGGCTGTATAGTAC
B2: Pr97 (dsDNA)
DNA 1: TTACTTATATAATGATAAATTTTAGGAG
DNA 2: CTCCTAAAATTTATCATTATATAAGTAA
B3: Pr119 (dsDNA)
DNA 1: TTTCAACCACTCCTCTTAGTTTGATTTGGTAAGTTTAGGTCGGTATTTATTATATAATATAAATGAAACATTATATAATGGAAAAATTTCCCAGTAAACT
DNA 2: AGTTTACTGGGAAATTTTTCCATTATATAATGTTTCATTTATATTATATAATAAATACCGACCTAAACTTACCAAATCAAACTAAGAGGAGTGGTTGAAA
B4: Pr46 (dsDNA)
DNA 1: TTTTTTTATTTATAAACATTATTAAAAAAATATAGATGTTTTGGTTATATTCCTTGTCCTTTATAAATAGAATTATATAAACAAAGGAGGAGGACAAGAG
DNA 2: CTCTTGTCCTCCTCCTTTGTTTATATAATTCTATTTATAAAGGACAAGGAATATAACCAAAACATCTATATTTTTTTAATAATGTTTATAAATAAAAAAA
B5: Pr104 (dsDNA)
DNA 1: AGGTGAATGAAACAAAAGATGTCATGATAAGTCATGTAAAACAATAGTTT
DNA 2: AAACTATTGTTTTACATGACTTATCATGACATCTTTTGTTTCATTCACCT
B6: Pr106 (dsDNA)
DNA 1: AAAATTTATCATTATATAAGTAACATAC
DNA 2: GTATGTTACTTATATAATGATAAATTTT
B7: Pr105 (dsDNA)
DNA 1: AAAAGATGTCATGATAAGTCATGTAA
DNA 2: TTACATGACTTATCATGACATCTTTT
B8: Pr103 (dsDNA)
DNA 1: TATATAAGTAACATACCCAATTTTGAGGTGAATGAAACAAAAGATGTCAT
DNA 2: ATGACATCTTTTGTTTCATTCACCTCAAAATTGGGTATGTTACTTATATA
B9: Pr96 (dsDNA)
DNA 1: AAGTAACATACCCAATTTTGAGGT
DNA 2: ACCTCAAAATTGGGTATGTTACTT
B10: Pr118 (dsDNA)
DNA 1: AACCCGTCATATGGCTTGAGTTTATACTCAAGCTTTTTTTATTGGTATATTTATATATATAAATAATTTAATATAATCAAAATGATGGGGGTATGTTACA
DNA 2: TGTAACATACCCCCATCATTTTGATTATATTAAATTATTTATATATATAAATATACCAATAAAAAAAGCTTGAGTATAAACTCAAGCCATATGACGGGTT
B11: Pr122 (dsDNA)
DNA 1: TAGAGTACTATGTATTATTATAGTAAATAT
DNA 2: ATATTTACTATAATAATACATAGTACTCTA
B12: Pr47 (dsDNA)
DNA 1: TCTTGACCTCGATAAGTGTCGTAAGTCAAGGGTAATTTATATATCAGTGAAAAATAATTACATTTAATCTAATGTTTTTAGAGAGGAGGATGCTATGTTA
DNA 2: TAACATAGCATCCTCCTCTCTAAAAACATTAGATTAAATGTAATTATTTTTCACTGATATATAAATTACCCTTGACTTACGACACTTATCGAGGTCAAGA
B13: Pr114 (dsDNA)
DNA 1: ATATTTTATAATTAATAATTGTAATGCCGCACAGTAAAGGTTTAAATCTTCAAATGAAGTACCTTGTACTGGCGAGTTTGAGGCCGAGGAGGTGTATTTA
DNA 2: TAAATACACCTCCTCGGCCTCAAACTCGCCAGTACAAGGTACTTCATTTGAAGATTTAAACCTTTACTGTGCGGCATTACAATTATTAATTATAAAATAT
B14: Pr94 (dsDNA)
DNA 1: AATGAAACAAAAGATGTCATG
DNA 2: CATGACATCTTTTGTTTCATT
B15: Pr95 (dsDNA)
DNA 1: TAAAATTTATCATTATATAAGTAA
DNA 2: TTACTTATATAATGATAAATTTTA
B16: Pr112 (dsDNA)
DNA 1: ATATTTTAGTTATATTTTTGATAGAAAATATTTTATCGTGTATAATACTACTTATAAATAAGAATAAAAATAAAGAGCTTGTTTGGAGGAATTTTAATAA
DNA 2: TTATTAAAATTCCTCCAAACAAGCTCTTTATTTTTATTCTTATTTATAAGTAGTATTATACACGATAAAATATTTTCTATCAAAAATATAACTAAAATAT
B17: Pr27 (Pobg) (dsDNA)
DNA 1: ATACATAAAAGGAGTGTTGAGGCACTCCTTTTTCTTATAATACTGATGAATTTATAATGGTATTTTTGGTAATGCTAATTAAAAGTTTTTAATTAAGTAG
DNA 2: CTACTTAATTAAAAACTTTTAATTAGCATTACCAAAAATACCATTATAAATTCATCAGTATTATAAGAAAAAGGAGTGCCTCAACACTCCTTTTATGTAT
B18: Pr102 (dsDNA)
DNA 1: TTTTAACCCTCCTAAAATTTATCATTATATAAGTAACATACCCAATTTTG
DNA 2: CAAAATTGGGTATGTTACTTATATAATGATAAATTTTAGGAGGGTTAAAA

The target of the first data set is cdPadR1 (Clostridium difficile R20291, UniProt A0A9R0CDW8 1-109). As to the kind of experiment: EMSA; no significant binding; EMSA: 20 mM Tris pH 8.0, 120 mM KCl, 12.5% glycerol, 10 mM MgCl2, 5 mM DTT, 125 ug/mL heparin (400 ug/mL in competition), room temperature; 8% PAGE in TB. Particulars: protein: recombinant; tags: N-terminal Strep II; chain copies: 2; blunt. For orientation: A gel shift assay detects complexes by their altered migration in electrophoresis.
With B1, the binding result is listed as “no binding”.

For the next data set the target is unchanged. The data set is described as follows: EMSA; 20 mM Tris pH 8.0, 120 mM KCl, 10 mM MgCl2, 5 mM DTT, 12.5% glycerol, 125 ug/mL heparin, room temperature. Conditions: protein: recombinant; tags: N-terminal Strep II; chain copies: 2.
Take B2: the binding result is on record as “no binding”.

As for B3, the binding result was “binds”. As for B4, the binding result is reported as “binds”.

As for B5, the binding result is listed as “binds”. On the same count and under the same terms, the entry for B6 is “no binding”; for B7 it is “no binding”; for B8 it is “no binding”.

B9: the binding result is recorded as “no binding”. Same read-out and setting: the entry for B10 is “binds”; for B11 it is “binds”.

Consider B12, for which the binding result is listed as “no binding”.

Turning to B13, the binding result is reported as “no binding”. Consider B14, for which the binding result was “no binding”. For the molecule B15, the binding result was “no binding”. On the same count and under the same terms, the entry for B16 is “binds”. The same measure, in the same setting: then B17, with “binds”. Same read-out and setting: then B18, with “binds”.

The values are drawn from article PMC5050560.
